Consider 20 molecules from patent US20110286916A1 (published 2011).

B1: N1wc241 (scFv, V domains shown)
VH: EVQLVQSGAEVKKPGASVKVSCKTSGYTFNDYYHHWVRQAPGQGLEWMGWINPHTGVANYAEKYKGRLAMTGDTSISTIYMDLSSLISDDTAIYFCARERSEWRNTVSSPSEYFHHWGKGTLVTVSS
VL: QSVLTQPPSASGTPGQRVTISCSGSFSNIGSNNVYWYQQLAGTAPKLLIYRNNERPSGVPDRFSGSKSGTSASLAISGLRSEDEADYYCAVRDDSLSGHYVFGSGTKVTVL
notes: phage scFv
B2: N1wc125 (scFv, V domains shown)
VH: QVQLQQSGAEVKKPGAPLKVSCKTSGFTFTGYYIHWVRQAPGQGLEWMGRVDPYNGATNFAQKFQGRVTMTTDTSTSTTYMELMSLRSDDTAVYYCARGWELDSWGQGTLVTVSS
VL: QSVLTQPASVSGSPGQSITISCTGTSSDVGGYNYVSWYQQHPGKAPKLMIYEGSKRPSGVSNRFSGSKSGNTASLTISGLQAEDEADYYCSSYTTRSTRVFGGGTKLTVL
notes: phage scFv
B3: N1wc113 (scFv, V domains shown)
VH: QMQLVQSGAEVKRPGASVNLSCKASGYSFSRYYIHWVRQAPGQGLELMGRINPGGGTTTYAQKFQGRVTLSRDTSTNTIFMELNGLTSEDTAMYYCARSNYDILAGYGPDAFDFWGQGTMVTVSS
VL: QAVLTQPSSVSGAPGQRVTISCTGSSSNIGAGNDVHWYRQFPGTAPKLLIYGNNKRPSGVSDRFSGSKSGTSASLAITGLQVEDEADYYCQSYDSSLGGSDVFGGGTKLTVL
notes: phage scFv
B4: N1wc82 (scFv, V domains shown)
VH: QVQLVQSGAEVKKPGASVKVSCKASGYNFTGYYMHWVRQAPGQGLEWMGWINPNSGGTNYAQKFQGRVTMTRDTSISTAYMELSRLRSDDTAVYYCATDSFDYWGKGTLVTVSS
VL: QSVLTQPPSVSATPGQKVTISCSGSNSNIGNNYVSWYQQLPGTAPKLLIYDSDQRPAGIPDRFSGSKLGTSATLGITGLQTGDEADYYCATWDAGLSVLIFGGGTKLTVL
notes: phage scFv
B5: N1wc129 (scFv, V domains shown)
VH: QVQLVQSGAEVKKPGASVKVSCKASGYNFTGYYLHWVRQAPGQGLEWMGWIDPNSGGTDYAQQFQGRVTVTRDTSISTAYMELSGLRSDDTAVYYCASDSFDHWGQGTLVTVSS
VL: QSVLTQPPSASGTPGQRATISCSGSGSNIGRNAVNWFQQLPGAAPKLLIYSNIHRPSGVPDRISGSKSGTSATLAISGLQSEDEADYYCATWDDSLNDYVFGTGTKLTVL
notes: phage scFv
B6: N1wc319 (scFv, V domains shown)
VH: B5 VH with K12E, L34M, D52N, D59N, Q63K, V70M, G85R, S98T, H103Y, Q106R
VL: QSVLTQPPSSSGTPGQRVTISCSGSSSNIGSNSVNWYQQLPGAAPKLLIYSDNQRPSGVPDRFSASKSYTSASLAISGLQSGDEADYFCATWDDSLTGLVFGGGTKLTVL
notes: phage scFv
B7: N1wc132 (scFv, V domains shown)
VH: B5 VH with D52N, Q63K, S84G, A97V, Q106R
VL: QSVLTQPPSASGTPGQRVTISCSGSSSNIGSNPVNWYQQLPGSAPKLLVYSDDQRPSGVPDRFSGSKSGASASLAISGLQSEDESDYYCAAWDDSQNAVVFGGGTKVTVL
notes: phage scFv
B8: N1wc301 (scFv, V domains shown)
VH: QVQLQQSGAEVKKPGASVKVSCKASGYIFGTYAIHWVRQAPGQSLEWMGWINAGTGNTKYSQKFQGRVTITMDTSATTAYMELSSLRSGDTAVYYCTRGDYYDSRGYYNRFDYWGRGTLVTVSS
VL: QSVVTQPPSASGTPGQRVTISCSGSSSNIGKNNVYWYQQLPGAAPKLLIYRNHERASGVPDRFSGSKSGTSASLAISGLQSEDEADYYCAARDDSLNGYVFGTGTKVTVL
notes: phage scFv
B9: N1wc170 (scFv, V domains shown)
VH: QVQLQQSGPEVKKPGASVKISCKTSGYTFSSFGISWVRQAPGQGPEWMGWVSPYSGDTDYAQKFRGRVTMTIDSSTDTAYVEMRSLRSDDTAIYYCANSPISDGSSSSYDNWGKGTLVTVSS
VL: SYELTQPPSVSVAPGQTARITCGGENIGTKSVHWYQQKSGQAPVLVIYEDKKRPSGIPDRFSGSSSGTMATLTITGAQVDDEADYYCYSADNTGDQRMFGGGTKLTVL
notes: phage scFv
B10: N1wc150 (scFv, V domains shown)
VH: EVQLVQSGAEVKKPGASVKVSCKASGYNFTGYYMHWVRQAPGQGLEWMGWINPNSGGTNYAQKFQGRVTMTRDTSISTAYMELSRLRSDDTAVYYCATDSFDYWGRGTMVTVSS
VL: SYELTQPPSASGTPGQRVTISCSGSGSNIGKNTVNWYQQLPGAAPKLLIYSNNERPSGVPGRFSGSKSGTSASLAISGLQSEDETDYYCAAWDDSLNDMVFGGGTKVTVL
notes: phage scFv
B11: N1wc295 (scFv, V domains shown)
VH: B10 VH with E1Q, V5Q, K63N
VL: QSVLTQPPSASGTPGQRVTISCSGNRSNIGSNTVNWYQQLPGTAPKLLIYSNDQRPSGVPDRFSGSKSGTSASLTISGLQSDDEADFYCAAWDDNLNGYVFGSGTKVTVL
notes: phage scFv
B12: N1wc239 (scFv, V domains shown)
VH: B10 VH with Q6E, M34I, T69I, R106K
VL: QSVLTQPPSASGTPGQRVAISCSGSHSNIRSNDVYWYQQFPGTAPKLLIYSNDQRPSGVSDRFAGSKSGTSASLAISGLRSEDESDYYCATWDDSLSGVVFGGGTKLTVL
notes: phage scFv
B13: N1wc281 (scFv, V domains shown)
VH: QVQLQESGAEVKKPGASVKVSCRASGYTFTTNSLHWVRQAPGQGLDWMGVINPRDGSATVAQKFQGRITMTSDTSTSTVFLALSSLTSDDTGVYFCARDGLDYRDTSRILAPTDVWGRGTLVTVSS
VL: QSVLTQPPSVSVSPGQTASITCSGDKLGDKYTFWYQQKPGQSPVLIIYQDTKRPSGIPERFSGSNSGNTATLTISGTQAMDEADYYCQAWDSNTDHVIFGGGTKLTVL
notes: phage scFv
B14: N1wc177 (scFv, V domains shown)
VH: QVQLVQSGAEVKEPGSSVRVSCKSSGGTFSNYAISWVRQAPGQGLEWMGGIIPGFGKTNYAQKFQGRVTITADASTSTTYMELRTLRSGDTAVYYCARDRGPDIGVAHFDSWGKGTMVTVSS
VL: QAVLTQPSSASGTPGQRVIISCSGSSSNIGKYIVNWYQQLPGAAPKLLIYTYNERPSGVPARFSGSTSGTSASLAITGLQSEDEADYYCASWDDSLNVVVFGGGTKLTVL
notes: phage scFv
B15: N1wc182 (scFv, V domains shown)
VH: QVQLVQSGPEVKKPGTSVKVSCKASGFTFTSSAVQWVRQARGQRLEWIGWIVVGSGNTNYAQKFQERVTITRDMSTSTAYMELSSLRSEDTAVYYCVADTVYWGQGTLVTVSS
VL: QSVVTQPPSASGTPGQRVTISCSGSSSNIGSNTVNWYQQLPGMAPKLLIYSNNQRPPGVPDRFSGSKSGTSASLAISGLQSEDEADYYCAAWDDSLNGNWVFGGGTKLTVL
notes: phage scFv
B16: N1wc441 (scFv, V domains shown)
VH: QVQLVQSGAEVKKPGASVKVSCKAPGYSFTDYYLHWVRQAPGIGLEWVGWINPNNGGTNYAQKFRGRVTMTRDTAINTAYMDMRWLRSDDTAVYYCATDGPPGTGNAFDIWGRGTLVTVSS
VL: SYELTQPPSVSVSPGQTARITCSGDALPDKYVHWYQQKSGQAPVLVLFDDSKRPSGIPERFSGSSSGTVATLIISGAQVEDEGDFFCYSTDSSGNERVFGGGTKLTVL
notes: phage scFv
B17: N1wc127 (scFv, V domains shown)
VH: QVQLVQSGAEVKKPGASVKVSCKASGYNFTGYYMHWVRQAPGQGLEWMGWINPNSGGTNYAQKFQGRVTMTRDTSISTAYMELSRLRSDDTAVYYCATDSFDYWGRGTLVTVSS
VL: SYVLTQPPSTSGAPGQRVTISCSGSSSNIGSNGVNWYHHLPGTAPKLLIYSNFHRPSGVPDRFSGSKSGTSATLAISGLQSEDEADYYCAAWDDSLNDYVFGVGTKVTVL
notes: phage scFv
B18: N1wc164 (scFv, V domains shown)
VH: QVQLVQSGADVKKPGASVKISCKASGYTFTKYYMHWVRQAPGQGLEWMGIINPTNGYTSYAQKFQGRVTMTSDTSASTVSMELSSLRSEDTAVYYCTRSYSNYDSFDIWGRGTMVTVSS
VL: QAVLTQPSSVSGAPGQRITISCTGTSSNIGAGYDVEWYQHLPGTAPKLLIYRNSNRPSGVPDRFSASKSGTSASLVITGLQAEDEADYYCQSYDTRLSDSVIFGGGTKLTVL
notes: phage scFv
B19: N1wc24 (scFv, V domains shown)
VH: EVQLVESGPGLVKPSETLSLTCTVSGGSMTSNFWSWIRQTPGKGLEWIGYVLYTGSTNSNPSLKSRVTMSVDTSKNQVSLTLSSVTAADTAIYYCARGNGWYLPWGRGTMVTVSS
VL: QSVLTQPPSVSGAPRQRVTISCSGSSSNIENNIVNWYQQLPGEAPKLLIYYDNLLPSGVSDRFSGSKSGTSASLAISGLQSGDEADYYCAAWDDSLKAVVFGGGTKLTVL
notes: phage scFv
B20: N1wc289 (scFv, V domains shown)
VH: QVQLVQSGAEVKKPGTTVKISCKVSGYKFTDYYIHWVRQAPGKGLEWMGFVDPTDDETRFAEKFQGRLTMTADTSRDTASMELSSLRSEDTAVYYCIRGIAALADWGRGTMVTVSS
VL: QAVLTQPSSLSASPGASASLTCTLRSDINLETSRIYWFQQKPGSPPRYLLRYQSDSDNNLDSGVPSRFSGSKDASANAGILLISGVQSEDEADYHCMIWHSGGSVFGGGTKVTVL
notes: phage scFv

Numbering of substitutions follows the chain as printed.

The first assay addresses T1, human full-length Notch1 with C-terminal FLAG tag, stably expressed on 293 FlpIn (TREx) cells (human, UniProt P46531 19-2555).
T1 construct: tetracycline/doxycycline-induced expression from pcDNA5/FRT/TO-HN1+FLAG; also called hN1; 293_N1
Briefly: FACS, phage scFv.
For B1, the binding result was “binds”.
On to B2, for which the binding result is listed as “binds”.
The same measure, in the same setting: under B3 stands “binds”; under B4, “binds”.
On to B5, for which the binding result is recorded as “binds”.
Still for that read-out and setting: under B6 stands “binds”; under B7, “binds”.
Same read-out and setting: to B8 belongs “binds”.
As to B9, the binding result is reported as “binds”.
Consider B10, for which the binding result was “binds”.
Still for that read-out and setting: to B11 belongs “binds”; to B12, “binds”.
The same measure, in the same setting: under B13 stands “binds”; under B14, “binds”; under B15, “binds”.
Still for that read-out and setting: under B16 stands “binds”.
Turning to B17, the binding result is on record as “binds”.
Same read-out and setting: under B18 stands “binds”; under B19, “binds”.
Same read-out and setting: to B20 belongs “binds”.

The target in the next assay is T2, human full-length Notch3 with C-terminal FLAG tag, stably expressed on 293 FlpIn (TREx) cells (human, UniProt Q9UM47 40-2321).
T2 construct: whole, on cells; made by the same strategy as the Notch1 line; also called 293-N3; hN3
The experiment in a line: FACS, phage scFv. A general note: In flow cytometry, cells or beads pass a laser one at a time.
B1: the binding result is “binds”.
Turning to B2, the binding result is recorded as “binds”.
On the same count and under the same terms, to B3 belongs “binds”; to B4, “binds”.
On to B5, for which the binding result was “binds”.
Still for that read-out and setting: under B6 stands “binds”; under B7, “binds”.
The same measure, in the same setting: to B8 belongs “binds”; to B9, “binds”.
Still for that read-out and setting: to B10 belongs “binds”; to B11, “binds”; to B12, “binds”.
Consider B13, for which the binding result is recorded as “binds”.
Same read-out and setting: under B14 stands “binds”; under B15, “binds”; under B16, “binds”.
The same measure, in the same setting: under B17 stands “binds”; under B18, “binds”.
For the molecule B19, the binding result is “binds”.
On the same count and under the same terms, to B20 belongs “binds”.
